Measurements from patent US20180177842A1 (CANIMGUIDE THERAPEUTICS, published 2018).

T1: P3028 (VFDEFKPLVEEPQNLIK, SEQ ID NO: 185), His-tagged (human)
T1 construct: Synthetic fragment of human serum albumin (positions 397-413); used in solution as His-tagged peptide PGE73; also called PGE73; not shown: His-tag
T1 peptide: VFDEFKPLVEEPQNLIK


Target: T1, P3028 (VFDEFKPLVEEPQNLIK, SEQ ID NO: …)
Test: PEPSCAN ELISA; peptide on chip, His-P3028 added;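 further: peroxidase color development with ABTS and H2O2 substrate, OD405 imaged by CCD camera with image processing and taken as raw values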
Method: After washing, the peroxidase substrate 2,2′-azine-di-3-ethylbenzthiazoline sulfonate (ABTS) and 2 μL of 3% H2O2 were added. The binding capacity of the mAb was measured as a color development at 405 nm (optical density, OD405). The color development was quantified with a charge-coupled device (CCD)—camera and an image processing system.
The OD405-values obtained by a CCD-camera was considered as raw data values (“rampo values,” “rampo units,” or “rampo scores”). […] First the CCD-camera made a picture of the card before peroxidase coloring and then again a picture after the peroxidase coloring. […] These values were copied into an excel file and labeled as a raw data file. […] Sometimes a well can contain an air-bubble resulting in a false-positive value. If manual inspection of the cards detect an air-bubble the value are set to 0 for well.

RAMPO Score [rampo units] | Binder
365 | KKLDTFFRKLSLFTER [KKLDTFFRKLSLFTER (SEQ ID NO: 330)]
311 | KKLDLFFVKLSLFTER [KKLDLFFVKLSLFTER (SEQ ID NO: 484)]
426 | KKLDTFAVKLSLFTER [KKLDTFAVKLSLFTER (SEQ ID NO: 404)]
415 | KKLDTFFVKISLFTER [KKLDTFFVKISLFTER (SEQ ID NO: 335)]
458 | KKLDSFFVKLSLFTER [KKLDSFFVKLSLFTER (SEQ ID NO: 310)]
271 | KKLDTFFQKLSLFTER [KKLDTFFQKLSLFTER (SEQ ID NO: 513)]
254 | KKLDTFFCKLSLFTER [KKLDTFFCKLSLFTER (SEQ ID NO: 519)]
456 | KKLDTFFPKLSLFTER (also called 32251) [KKLDTFFPKLSLFTER (SEQ ID NO: 329)]
426 | KKLDTFFVKASLFTER [KKLDTFFVKASLFTER (SEQ ID NO: 332)]
322 | KKLDTFFVKLDLFTER [KKLDTFFVKLDLFTER (SEQ ID NO: 474)]
318 | KKLDTFFVKLALFTER [KKLDTFFVKLALFTER (SEQ ID NO: 477)]
234 | KKLDTFFVKLELFTER [KKLDTFFVKLELFTER (SEQ ID NO: 532)]
293 | KKLDIFFVKLSLFTER [KKLDIFFVKLSLFTER (SEQ ID NO: 501)]
293 | KKLDTFFVKHSLFTER [KKLDTFFVKHSLFTER (SEQ ID NO: 502)]
299 | KKLDTFFAKLSLFTER [KKLDTFFAKLSLFTER (SEQ ID NO: 495)]
427 | KKLDPFFVKLSLFTER [KKLDPFFVKLSLFTER (SEQ ID NO: 307)]
495 | KKLDTFFVKGSLFTER [KKLDTFFVKGSLFTER (SEQ ID NO: 334)]
283 | KKLDTFFVKCSLFTER [KKLDTFFVKCSLFTER (SEQ ID NO: 508)]
335 | KKLDTCFVKLSLFTER [KKLDTCFVKLSLFTER (SEQ ID NO: 462)]
379 | KKLDTFFGKLSLFTER [KKLDTFFGKLSLFTER (SEQ ID NO: 327)]

RAMPO Score [rampo units] | Binder
535 | KKLDQFFVKLSLFTER [KKLDQFFVKLSLFTER (SEQ ID NO: 308)]
298 | KKLDTFFTKLSLFTER [KKLDTFFTKLSLFTER (SEQ ID NO: 496)]
575 | KKLDTAFVKLSLFTER [KKLDTAFVKLSLFTER (SEQ ID NO: 313)]
403 | KKLDTFFVKFSLFTER [KKLDTFFVKFSLFTER (SEQ ID NO: 333)]
381 | KKLDTFEVKLSLFTER [KKLDTFEVKLSLFTER (SEQ ID NO: 424)]
285 | KKLDTFFVKKSLFTER [KKLDTFFVKKSLFTER (SEQ ID NO: 506)]
475 | KKLDMFFVKLSLFTER [KKLDMFFVKLSLFTER (SEQ ID NO: 305)]
358 | KKLDTFFFKLSLFTER [KKLDTFFFKLSLFTER (SEQ ID NO: 326)]
436 | KKLDNFFVKLSLFTER [KKLDNFFVKLSLFTER (SEQ ID NO: 306)]
301 | KKLDTFDVKLSLFTER [KKLDTFDVKLSLFTER (SEQ ID NO: 492)]
411 | KKLDTFCVKLSLFTER [KKLDTFCVKLSLFTER (SEQ ID NO: 409)]
430 | KKLDRFFVKLSLFTER [KKLDRFFVKLSLFTER (SEQ ID NO: 309)]
306 | KKLDTFFVHLSLFTER [KKLDTFFVHLSLFTER (SEQ ID NO: 488)]
391 | KKLDHFFVKLSLFTER [KKLDHFFVKLSLFTER (SEQ ID NO: 420)]
401 | KKLDTFFIKLSLFTER [KKLDTFFIKLSLFTER (SEQ ID NO: 416)]
237 | KKLDKFFVKLSLFTER [KKLDKFFVKLSLFTER (SEQ ID NO: 530)]
240 | KKLDTFFVELSLFTER [KKLDTFFVELSLFTER (SEQ ID NO: 527)]
411 | KKLDTFFLKLSLFTER [KKLDTFFLKLSLFTER (SEQ ID NO: 328)]
341 | KKLDTFFVKLCLFTER [KKLDTFFVKLCLFTER (SEQ ID NO: 457)]

Second part, the binder before the results:

Binder | RAMPO Score [rampo units]
AKLDTFFVKLSLFTER [AKLDTFFVKLSLFTER (SEQ ID NO: 268)] | 466
KILDTFFVKLSLFTER [KILDTFFVKLSLFTER (SEQ ID NO: 467)] | 331
EKLDTFFVKLSLFTER [EKLDTFFVKLSLFTER (SEQ ID NO: 270)] | 396
KKDDTFFVKLSLFTER [KKDDTFFVKLSLFTER (SEQ ID NO: 284)] | 492
KKLDDFFVKLSLFTER [KKLDDFFVKLSLFTER (SEQ ID NO: 500)] | 295
KKLATFFVKLSLFTER [KKLATFFVKLSLFTER (SEQ ID NO: 298)] | 494
KKIDTFFVKLSLFTER [KKIDTFFVKLSLFTER (SEQ ID NO: 289)] | 454
FKLDTFFVKLSLFTER [FKLDTFFVKLSLFTER (SEQ ID NO: 465)] | 332
KKEDTFFVKLSLFTER [KKEDTFFVKLSLFTER (SEQ ID NO: 285)] | 528
KKLDAFFVKLSLFTER [KKLDAFFVKLSLFTER (SEQ ID NO: 447)] | 346
KKHDTFFVKLSLFTER [KKHDTFFVKLSLFTER (SEQ ID NO: 288)] | 477
KKCDTFFVKLSLFTER [KKCDTFFVKLSLFTER (SEQ ID NO: 283)] | 432
KKGDTFFVKLSLFTER [KKGDTFFVKLSLFTER (SEQ ID NO: 287)] | 563
KKLDGFFVKLSLFTER [KKLDGFFVKLSLFTER (SEQ ID NO: 95)] | 386
KKADTFFVKLSLFTER [KKADTFFVKLSLFTER (SEQ ID NO: 282)] | 427
KKKDTFFVKLSLFTER [KKKDTFFVKLSLFTER (SEQ ID NO: 290)] | 386

Binder | RAMPO Score [rampo units]
KKLDCFFVKLSLFTER [KKLDCFFVKLSLFTER (SEQ ID NO: 304)] | 449
KKFDTFFVKLSLFTER [KKFDTFFVKLSLFTER (SEQ ID NO: 286)] | 393
KKLDFFFVKLSLFTER [KKLDFFFVKLSLFTER (SEQ ID NO: 504)] | 290
KALDTFFVKLSLFTER [KALDTFFVKLSLFTER (SEQ ID NO: 485)] | 309
KCLDTFFVKLSLFTER [KCLDTFFVKLSLFTER (SEQ ID NO: 499)] | 295
HKLDTFFVKLSLFTER [HKLDTFFVKLSLFTER (SEQ ID NO: 272)] | 428
KFLDTFFVKLSLFTER [KFLDTFFVKLSLFTER (SEQ ID NO: 421)] | 390
DKLDTFFVKLSLFTER [DKLDTFFVKLSLFTER (SEQ ID NO: 269)] | 373
GKLDTFFVKLSLFTER [GKLDTFFVKLSLFTER (SEQ ID NO: 271)] | 367
KKLDEFFVKLSLFTER [KKLDEFFVKLSLFTER (SEQ ID NO: 456)] | 341
KGLDTFFVKLSLFTER [KGLDTFFVKLSLFTER (SEQ ID NO: 412)] | 405
KDLDTFFVKLSLFTER [KDLDTFFVKLSLFTER (SEQ ID NO: 461)] | 335
KELDTFFVKLSLFTER [KELDTFFVKLSLFTER (SEQ ID NO: 441)] | 349
KKLCTFFVKLSLFTER [KKLCTFFVKLSLFTER (SEQ ID NO: 449)] | 344
IKLDTFFVKLSLFTER [IKLDTFFVKLSLFTER (SEQ ID NO: 273)] | 483
KHLDTFFVKLSLFTER [KHLDTFFVKLSLFTER (SEQ ID NO: 418)] | 394
